Measurements: the RNAGym collection of RNA variant scans (doi:10.1093/molbev/msab373)

B1: Azoarcus group I ribozyme (parent)
chain: GUGCCUUGCGCCGGGAAACCACGCAAGGGAUGGUGUCAAAUUCGGCGAAACCUAAGCGCCCGCCCGGGCGUAUGGCAACGCCGAGCCAAGCUUCGGCGCCUGCGCCGAUGAAGGUGUAGAGACUAGACGGCACCCACCUAAGGCAAACGCUAUGGUGAAGGCAUAGUCCAGGGAGUGGCGAAAGUCACACAAACCGG

Variants of: B1
Assay: reverse-splicing fitness (ratio to wild type); higher = more active; in vitro selection; Mg2+ level not given
In short: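 An in vitro group I ribozyme library with randomized positions was T7-transcribed and gel-purified. In triplicate, 10 pmol RNA in EPPS pH 7.5 was reacted with 50 pmoles of a 30-nt RNA substrate for 1 h at 37 °C across several added MgCl2 levels (1–48 mM), then stopped with EDTA. Products were reverse transcribed from a substrate-complementary primer, PCR-amplified and sequenced (HiSeq 4000). Fitness is a variant's read proportion after selection over that before, normalised to wild type.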

Question: For C82A A111U A145C C169A U176G, which reverse-splicing fitness is on record?
Answer: 0.00702

Question: Which reverse-splicing fitness does the source give for C82A A111U A145C C169A U176A here?
Answer: 0.0109

Question: Which reverse-splicing fitness does the source give for C82A A111U A120U A145U C150U U176C here?
Answer: 0.00878

Question: With C82A A111U A120U A145U C150U U176G as the variant, how does the reverse-splicing fitness read?
Answer: 0.00385

Question: With C82A A111U A120U A145U C150U U176A as the variant, how does the reverse-splicing fitness read?
Answer: 0.00828

Question: Which reverse-splicing fitness does the source give for C82A A111U A120U C150A C169U U176C here?
Answer: 0.00489

Question: For C82A A111U A120U C150A C169U U176G, which reverse-splicing fitness is on record?
Answer: 0.00224

Question: With C82A A111U A120U C150A C169U U176A as the variant, how does the reverse-splicing fitness read?
Answer: 0.00587

Question: Which reverse-splicing fitness does the source give for C82A A111U A120U C150A C169U here?
Answer: 0.00495

Question: For C82A A111U A120U C150A C169G, which reverse-splicing fitness is on record?
Answer: 0.00511

Question: For C82A A111U A120U C150A C169A, which reverse-splicing fitness is on record?
Answer: 0.00615

Question: Which reverse-splicing fitness does the source give for C82A A111U A120U A145C C169A U176A here?
Answer: 0.00304

Question: For C82A A111U A120U A145C C169A U176C, which reverse-splicing fitness is on record?
Answer: 0.00227

Question: With C82A A111U A120U A145C C169A U176G as the variant, how does the reverse-splicing fitness read?
Answer: 0.00209

Question: With C82A A111U A145C C150U C169G U176G as the variant, how does the reverse-splicing fitness read?
Answer: 0.00743

Question: For C82A A111U A145C C150U C169G U176C, which reverse-splicing fitness is on record?
Answer: 0.0141

Question: With C82A A111U A145C C150U C169G U176A as the variant, how does the reverse-splicing fitness read?
Answer: 0.0233

Question: With C82A A111U A120U A145G C150A C169U U176C as the variant, how does the reverse-splicing fitness read?
Answer: 0.00543

Question: Which reverse-splicing fitness does the source give for C82A A111U A120U A145G C150A C169U U176G here?
Answer: 0.00326

Question: With C82A A111U A120U A145G C150A C169U U176A as the variant, how does the reverse-splicing fitness read?
Answer: 0.00626

Question: With C82A A111U A120U C169A U176C as the variant, how does the reverse-splicing fitness read?
Answer: 0.0039

Question: Which reverse-splicing fitness does the source give for C82A A111U A120U C169A U176G here?
Answer: 0.00243

Question: Which reverse-splicing fitness does the source give for C82A A111U A120U C169A U176A here?
Answer: 0.00348

Question: Which reverse-splicing fitness does the source give for C82A A111U A120U A145C C150A C169A here?
Answer: 0.00277

Question: Which reverse-splicing fitness does the source give for C82A A111U A120U A145C C150A C169U here?
Answer: 0.00267

Question: Which reverse-splicing fitness does the source give for C82A A111U A120U A145C C150A C169G here?
Answer: 0.00256

Question: For C82A A111U A145C C150G C169A U176C, which reverse-splicing fitness is on record?
Answer: 0.0076

Question: With C82A A111U A145C C150G C169A U176A as the variant, how does the reverse-splicing fitness read?
Answer: 0.0086

Question: For C82A A111U A145C C150G C169A U176G, which reverse-splicing fitness is on record?
Answer: 0.00755

Question: With C82A A111U A120U A145C C150G C169A as the variant, how does the reverse-splicing fitness read?
Answer: 0.00347

Question: Which reverse-splicing fitness does the source give for C82A A111U A120U A145C C150G C169U here?
Answer: 0.00392

Question: Which reverse-splicing fitness does the source give for C82A A111U A120U A145C C150G C169G here?
Answer: 0.0039

Question: Which reverse-splicing fitness does the source give for C82A A111U A120U C150U C169G here?
Answer: 0.00623

Question: With C82A A111U A120U C150U C169U as the variant, how does the reverse-splicing fitness read?
Answer: 0.00507

Question: Which reverse-splicing fitness does the source give for C82A A111U A120U C150U C169A here?
Answer: 0.00594

Question: Which reverse-splicing fitness does the source give for C82A A111U A120U A145U U176C here?
Answer: 0.0117

Question: Which reverse-splicing fitness does the source give for C82A A111U A120U A145U U176A here?
Answer: 0.0073

Question: Which reverse-splicing fitness does the source give for C82A A111U A120U A145U U176G here?
Answer: 0.00335

Question: For C82A A111U A145G C150A C169U U176A, which reverse-splicing fitness is on record?
Answer: 0.0158

Question: For C82A A111U A145G C150A C169U U176C, which reverse-splicing fitness is on record?
Answer: 0.0161

Question: For C82A A111U A145G C150A C169U U176G, which reverse-splicing fitness is on record?
Answer: 0.00831

Question: Which reverse-splicing fitness does the source give for C82A A111U A145G C150A C169G U176C here?
Answer: 0.027

Question: Which reverse-splicing fitness does the source give for C82A A111U A145G C150A C169G U176A here?
Answer: 0.0183

Question: Which reverse-splicing fitness does the source give for C82A A111U A145G C150A C169G U176G here?
Answer: 0.00681

Question: With C82A A111U A145G C150A as the variant, how does the reverse-splicing fitness read?
Answer: 0.0371

Question: For C82A A111U A120U A145G C150G C169G U176A, which reverse-splicing fitness is on record?
Answer: 0.00885

Question: For C82A A111U A120U A145G C150G C169G U176G, which reverse-splicing fitness is on record?
Answer: 0.00413

Question: For C82A A111U A120U A145G C150G C169G U176C, which reverse-splicing fitness is on record?
Answer: 0.00639

Question: Which reverse-splicing fitness does the source give for C82A A111U A145G C150A C169A U176G here?
Answer: 0.00853

Question: For C82A A111U A145G C150A C169A U176C, which reverse-splicing fitness is on record?
Answer: 0.0242

Question: With C82A A111U A145G C150A C169A U176A as the variant, how does the reverse-splicing fitness read?
Answer: 0.0197

Question: For C82A A111U A120U C150U C169U U176G, which reverse-splicing fitness is on record?
Answer: 0.00262

Question: With C82A A111U A120U C150U C169U U176C as the variant, how does the reverse-splicing fitness read?
Answer: 0.00448

Question: For C82A A111U A120U C150U C169U U176A, which reverse-splicing fitness is on record?
Answer: 0.00662

Question: Which reverse-splicing fitness does the source give for C82A A111U A120U A145G C150G C169U U176G here?
Answer: 0.00513

Question: With C82A A111U A120U A145G C150G C169U U176C as the variant, how does the reverse-splicing fitness read?
Answer: 0.0089

Question: Which reverse-splicing fitness does the source give for C82A A111U A120U A145G C150G C169U U176A here?
Answer: 0.00862

Question: For C82A A111U A145C C150U C169U U176A, which reverse-splicing fitness is on record?
Answer: 0.0138

Question: Which reverse-splicing fitness does the source give for C82A A111U A145C C150U C169U U176C here?
Answer: 0.00945

Question: For C82A A111U A145C C150U C169U U176G, which reverse-splicing fitness is on record?
Answer: 0.00661

Question: For C82A A111U A120U C150G C169U U176C, which reverse-splicing fitness is on record?
Answer: 0.00451

Question: Which reverse-splicing fitness does the source give for C82A A111U A120U C150G C169U U176G here?
Answer: 0.00327

Question: With C82A A111U A120U C150G C169U U176A as the variant, how does the reverse-splicing fitness read?
Answer: 0.00341

Question: For C82A A111U A145C C169G U176C, which reverse-splicing fitness is on record?
Answer: 0.0185

Question: Which reverse-splicing fitness does the source give for C82A A111U A145C C169G U176A here?
Answer: 0.0281

Question: Which reverse-splicing fitness does the source give for C82A A111U A145C C169G U176G here?
Answer: 0.00654

Question: With C82A A111U A120U A145U C150U C169U U176C as the variant, how does the reverse-splicing fitness read?
Answer: 0.00339

Question: For C82A A111U A120U A145U C150U C169U U176G, which reverse-splicing fitness is on record?
Answer: 0.00299

Question: Which reverse-splicing fitness does the source give for C82A A111U A120U A145U C150U C169U U176A here?
Answer: 0.00333

Question: For C82A A111U A120U U176G, which reverse-splicing fitness is on record?
Answer: 0.00275

Question: With C82A A111U A120U U176C as the variant, how does the reverse-splicing fitness read?
Answer: 0.0105

Question: Which reverse-splicing fitness does the source give for C82A A111U A120U U176A here?
Answer: 0.00842

Question: For C82A A111U A120U A145U C150G U176G, which reverse-splicing fitness is on record?
Answer: 0.00272

Question: For C82A A111U A120U A145U C150G U176A, which reverse-splicing fitness is on record?
Answer: 0.00344

Question: With C82A A111U A120U A145U C150G U176C as the variant, how does the reverse-splicing fitness read?
Answer: 0.00545

Question: For C82A A111U A120U A145C C150U C169U U176A, which reverse-splicing fitness is on record?
Answer: 0.00291

Question: With C82A A111U A120U A145C C150U C169U U176C as the variant, how does the reverse-splicing fitness read?
Answer: 0.00282

Question: With C82A A111U A120U A145C C150U C169U U176G as the variant, how does the reverse-splicing fitness read?
Answer: 0.00236

Question: For C82A A111U A145G C150A U176G, which reverse-splicing fitness is on record?
Answer: 0.0112

Question: For C82A A111U A145G C150A U176C, which reverse-splicing fitness is on record?
Answer: 0.0448

Question: For C82A A111U A145G C150A U176A, which reverse-splicing fitness is on record?
Answer: 0.0206

Question: Which reverse-splicing fitness does the source give for C82A A111U A120U A145G C169A U176C here?
Answer: 0.00356

Question: For C82A A111U A120U A145G C169A U176G, which reverse-splicing fitness is on record?
Answer: 0.00239

Question: Which reverse-splicing fitness does the source give for C82A A111U A120U A145G C169A U176A here?
Answer: 0.00409
